Molecular target: AP1 expressed in planta (35S::AP1 transgene, or ectopically activated in the tfl mutant) (Arabidopsis thaliana) (UniProt P35631)
Assay: cell-based or functional assay

AP1 expressed in planta (35S::AP1 transgene, or ectopically activated in the tfl mutant) (Arabidopsis thaliana), sequence (P35631 whole entry, change not shown): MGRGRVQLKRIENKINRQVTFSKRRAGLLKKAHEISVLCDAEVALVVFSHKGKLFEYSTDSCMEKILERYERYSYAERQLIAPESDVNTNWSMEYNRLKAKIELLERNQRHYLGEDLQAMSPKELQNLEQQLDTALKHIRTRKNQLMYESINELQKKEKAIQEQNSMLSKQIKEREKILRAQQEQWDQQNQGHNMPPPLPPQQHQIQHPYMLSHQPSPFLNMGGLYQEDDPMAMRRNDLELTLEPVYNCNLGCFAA

SEP3 expressed from the 35S::SEP3 transgene in Arabidopsis (from UniProt O22456 1-251)
rosette leaves formed before flowering, tfl mutation in combination with the 35S::SEP3 transgene (rosette leaves): 2
rosette leaves produced before flowering, 35S::AP1 35S::SEP3 doubly transgenic plants (rosette leaves): 2
